# Experimental data taken from the supplement of paper PMC5998384.
# What was measured:
# HeLa Kyoto [1] = experiment: melting temperature (median over replicates), in situ; higher = more thermally stable
# HeLa Kyoto [2] = experiment: solubility change mitosis vs G1/S (difference of NP-40 vs SDS log2 ratios) (log2 ratio difference); higher = more soluble in mitosis
# HeLa Kyoto [3] = experiment: solubility in G1/S (NP-40 vs SDS abundance) (log2 ratio); higher = more soluble; settings: cell cycle stage: G1/S
# HeLa Kyoto [4] = experiment: thermal stability score vs G1/S (z-score of summed log2 fold changes over temperatures); higher = more thermally stable than in G1/S
# [5] = cell cycle stage: early G1 (4.5 h after nocodazole release)
# 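Wherever melting temperature (median over replicates), in situ is given: HeLa Kyoto cells synchronized by double thymidine or nocodazole block, proteins quantified by TMT10plex mass spectrometry, three independent biological replicates.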
# 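Wherever solubility change mitosis vs G1/S (difference of NP-40 vs SDS log2 ratios) is given: synchronized HeLa Kyoto cells (double thymidine block for G1/S, nocodazole release for mitosis), protein amounts in NP-40 versus SDS lysates quantified by mass spectrometry, three biological replicates.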
# 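Wherever solubility in G1/S (NP-40 vs SDS abundance) is given: HeLa Kyoto cells arrested at G1/S by double thymidine block, proteins quantified by TMT10plex mass spectrometry in mild NP-40 versus SDS extracts, three biological replicates.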
# 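Wherever thermal stability score vs G1/S (z-score of summed log2 fold changes over temperatures) is given: synchronized HeLa Kyoto cells, proteins quantified by TMT10plex mass spectrometry, three biological replicates, mitosis taken 0.5 h after nocodazole release, G1/S directly after double thymidine block.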
# Sequence of HSPA2 (chain, as listed by the source): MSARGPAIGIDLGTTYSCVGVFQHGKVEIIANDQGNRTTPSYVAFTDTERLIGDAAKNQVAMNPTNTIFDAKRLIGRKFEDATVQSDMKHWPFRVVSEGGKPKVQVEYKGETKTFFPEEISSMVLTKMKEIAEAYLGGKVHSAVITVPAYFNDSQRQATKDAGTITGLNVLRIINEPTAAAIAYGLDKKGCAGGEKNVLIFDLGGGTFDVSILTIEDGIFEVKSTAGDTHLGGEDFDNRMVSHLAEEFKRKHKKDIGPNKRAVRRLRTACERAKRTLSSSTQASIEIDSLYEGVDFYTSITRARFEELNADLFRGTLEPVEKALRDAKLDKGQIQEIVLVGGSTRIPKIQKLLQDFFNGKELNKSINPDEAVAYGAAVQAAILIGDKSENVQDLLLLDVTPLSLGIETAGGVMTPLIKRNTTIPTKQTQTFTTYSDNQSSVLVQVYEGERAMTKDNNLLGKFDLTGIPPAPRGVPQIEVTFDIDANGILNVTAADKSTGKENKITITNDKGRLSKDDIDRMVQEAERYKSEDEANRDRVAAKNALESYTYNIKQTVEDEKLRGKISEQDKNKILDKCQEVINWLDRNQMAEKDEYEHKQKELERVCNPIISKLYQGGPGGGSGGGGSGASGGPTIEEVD
# Sequence of EZH2 (chain, as listed by the source): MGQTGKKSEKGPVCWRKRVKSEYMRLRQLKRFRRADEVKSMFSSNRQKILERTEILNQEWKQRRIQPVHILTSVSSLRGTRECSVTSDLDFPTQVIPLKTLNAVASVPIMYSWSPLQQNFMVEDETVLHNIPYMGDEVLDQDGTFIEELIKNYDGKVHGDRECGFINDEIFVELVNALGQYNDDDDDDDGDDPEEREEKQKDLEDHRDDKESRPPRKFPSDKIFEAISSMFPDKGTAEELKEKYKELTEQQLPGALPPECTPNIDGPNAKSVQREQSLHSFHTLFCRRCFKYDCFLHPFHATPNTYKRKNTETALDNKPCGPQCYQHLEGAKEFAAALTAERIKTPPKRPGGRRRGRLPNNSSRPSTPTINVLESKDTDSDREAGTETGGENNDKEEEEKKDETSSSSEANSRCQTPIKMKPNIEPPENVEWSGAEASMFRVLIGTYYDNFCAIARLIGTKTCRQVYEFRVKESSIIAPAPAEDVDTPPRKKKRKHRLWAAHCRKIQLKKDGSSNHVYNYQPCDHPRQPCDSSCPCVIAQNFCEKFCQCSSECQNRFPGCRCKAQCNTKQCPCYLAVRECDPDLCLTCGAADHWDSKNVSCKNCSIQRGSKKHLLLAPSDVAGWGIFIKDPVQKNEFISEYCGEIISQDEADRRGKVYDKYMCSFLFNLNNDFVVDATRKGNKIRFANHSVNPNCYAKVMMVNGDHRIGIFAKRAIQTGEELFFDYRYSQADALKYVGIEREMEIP
# Sequence of HACL1 (chain, as listed by the source): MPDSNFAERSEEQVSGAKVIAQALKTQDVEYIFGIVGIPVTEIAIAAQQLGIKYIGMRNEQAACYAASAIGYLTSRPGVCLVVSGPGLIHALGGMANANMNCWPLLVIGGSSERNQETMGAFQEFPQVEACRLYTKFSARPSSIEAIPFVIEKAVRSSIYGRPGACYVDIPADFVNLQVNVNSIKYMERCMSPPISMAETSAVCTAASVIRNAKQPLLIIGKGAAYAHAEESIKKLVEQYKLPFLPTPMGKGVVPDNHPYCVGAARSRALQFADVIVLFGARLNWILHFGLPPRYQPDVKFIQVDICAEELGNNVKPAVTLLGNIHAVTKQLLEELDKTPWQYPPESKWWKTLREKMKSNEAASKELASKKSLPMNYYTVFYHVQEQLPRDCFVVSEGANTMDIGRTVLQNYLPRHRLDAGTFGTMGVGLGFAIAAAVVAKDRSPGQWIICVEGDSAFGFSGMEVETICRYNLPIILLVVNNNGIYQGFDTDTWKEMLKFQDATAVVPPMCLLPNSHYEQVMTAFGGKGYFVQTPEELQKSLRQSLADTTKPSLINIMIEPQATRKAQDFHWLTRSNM
# Sequence of CTDSPL2 (chain, as listed by the source): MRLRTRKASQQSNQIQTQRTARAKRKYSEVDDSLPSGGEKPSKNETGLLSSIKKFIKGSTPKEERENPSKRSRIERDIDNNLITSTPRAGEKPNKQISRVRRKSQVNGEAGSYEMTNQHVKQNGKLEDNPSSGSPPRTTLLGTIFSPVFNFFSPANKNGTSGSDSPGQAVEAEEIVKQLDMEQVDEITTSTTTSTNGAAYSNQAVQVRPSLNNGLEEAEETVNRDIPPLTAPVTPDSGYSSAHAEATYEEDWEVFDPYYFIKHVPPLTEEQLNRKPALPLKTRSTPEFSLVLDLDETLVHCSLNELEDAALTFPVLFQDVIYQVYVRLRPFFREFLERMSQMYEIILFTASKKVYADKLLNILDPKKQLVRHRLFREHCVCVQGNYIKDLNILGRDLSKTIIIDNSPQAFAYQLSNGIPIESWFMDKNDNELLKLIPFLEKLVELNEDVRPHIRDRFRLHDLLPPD
# Sequence of HSPA9 (chain, as listed by the source): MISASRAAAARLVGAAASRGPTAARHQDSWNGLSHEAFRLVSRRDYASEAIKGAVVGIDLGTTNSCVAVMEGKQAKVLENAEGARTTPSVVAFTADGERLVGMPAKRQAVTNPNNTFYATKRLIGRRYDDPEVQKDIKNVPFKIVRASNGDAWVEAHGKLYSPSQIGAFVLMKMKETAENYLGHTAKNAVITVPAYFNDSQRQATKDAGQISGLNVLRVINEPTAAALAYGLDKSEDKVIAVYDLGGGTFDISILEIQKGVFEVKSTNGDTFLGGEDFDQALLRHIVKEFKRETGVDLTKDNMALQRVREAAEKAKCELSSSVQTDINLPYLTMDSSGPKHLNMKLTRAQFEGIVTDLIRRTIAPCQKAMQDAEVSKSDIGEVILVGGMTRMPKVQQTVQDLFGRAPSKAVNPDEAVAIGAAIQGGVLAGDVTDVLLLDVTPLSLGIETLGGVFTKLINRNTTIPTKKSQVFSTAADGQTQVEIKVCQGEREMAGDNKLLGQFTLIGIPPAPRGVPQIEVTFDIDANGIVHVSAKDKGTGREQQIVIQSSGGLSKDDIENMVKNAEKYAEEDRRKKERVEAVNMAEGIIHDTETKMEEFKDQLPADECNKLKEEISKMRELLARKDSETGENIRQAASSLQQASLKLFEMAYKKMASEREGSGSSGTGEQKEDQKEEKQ
# Sequence of FXR2 (chain, as listed by the source): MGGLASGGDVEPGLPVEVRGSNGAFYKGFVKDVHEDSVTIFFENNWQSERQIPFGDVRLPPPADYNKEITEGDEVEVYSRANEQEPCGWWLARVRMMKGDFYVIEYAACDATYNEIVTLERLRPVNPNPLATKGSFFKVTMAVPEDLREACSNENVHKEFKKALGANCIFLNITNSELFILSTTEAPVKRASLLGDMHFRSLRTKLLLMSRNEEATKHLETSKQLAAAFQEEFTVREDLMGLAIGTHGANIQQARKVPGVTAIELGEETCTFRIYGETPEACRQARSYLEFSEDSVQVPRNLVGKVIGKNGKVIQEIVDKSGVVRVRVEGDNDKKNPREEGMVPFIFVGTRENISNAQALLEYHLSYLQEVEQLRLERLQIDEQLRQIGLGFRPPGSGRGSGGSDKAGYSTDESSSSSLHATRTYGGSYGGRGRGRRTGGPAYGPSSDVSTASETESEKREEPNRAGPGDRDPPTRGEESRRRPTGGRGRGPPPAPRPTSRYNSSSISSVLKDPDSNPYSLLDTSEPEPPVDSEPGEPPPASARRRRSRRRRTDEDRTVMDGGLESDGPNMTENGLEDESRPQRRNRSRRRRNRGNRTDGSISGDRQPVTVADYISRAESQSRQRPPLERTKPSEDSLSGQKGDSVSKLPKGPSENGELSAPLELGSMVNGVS
# Sequence of ITCH (chain, as listed by the source): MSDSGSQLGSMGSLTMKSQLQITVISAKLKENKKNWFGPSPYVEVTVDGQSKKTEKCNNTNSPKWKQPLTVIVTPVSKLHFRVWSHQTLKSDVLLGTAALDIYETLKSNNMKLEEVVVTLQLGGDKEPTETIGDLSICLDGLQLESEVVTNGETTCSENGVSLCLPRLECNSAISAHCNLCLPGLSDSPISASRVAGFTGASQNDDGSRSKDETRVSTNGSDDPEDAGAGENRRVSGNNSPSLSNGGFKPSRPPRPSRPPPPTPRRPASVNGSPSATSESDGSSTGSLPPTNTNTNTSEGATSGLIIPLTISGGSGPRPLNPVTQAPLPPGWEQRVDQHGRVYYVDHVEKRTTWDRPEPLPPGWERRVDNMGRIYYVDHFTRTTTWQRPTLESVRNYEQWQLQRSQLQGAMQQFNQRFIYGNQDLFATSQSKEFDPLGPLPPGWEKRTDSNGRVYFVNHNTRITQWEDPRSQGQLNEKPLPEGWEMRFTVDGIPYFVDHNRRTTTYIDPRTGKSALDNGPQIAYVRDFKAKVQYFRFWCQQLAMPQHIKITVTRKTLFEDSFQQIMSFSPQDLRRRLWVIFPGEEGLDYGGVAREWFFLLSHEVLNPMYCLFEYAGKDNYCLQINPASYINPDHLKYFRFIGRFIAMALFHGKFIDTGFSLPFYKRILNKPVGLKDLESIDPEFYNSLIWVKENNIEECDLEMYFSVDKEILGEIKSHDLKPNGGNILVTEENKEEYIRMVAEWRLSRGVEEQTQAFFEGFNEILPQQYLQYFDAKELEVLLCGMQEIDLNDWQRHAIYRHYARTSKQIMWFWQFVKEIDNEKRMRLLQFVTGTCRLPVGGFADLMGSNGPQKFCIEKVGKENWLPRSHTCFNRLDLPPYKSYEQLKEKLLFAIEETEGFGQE
Substance,melting temperature (HeLa Kyoto [1]; cell cycle stage: G1/S) [°C],melting temperature (HeLa Kyoto [1]; cell cycle stage: mitosis) [°C],solubility change mitosis (log2) (HeLa Kyoto [2]),solubility in G1/S (log2) (HeLa Kyoto [3]),thermal stability score (HeLa Kyoto [4]; [5]),thermal stability score (HeLa Kyoto [4]; cell cycle stage: mitosis)
CPS1,53.1,53.2,-0.13,0.0669,-0.953,-3.38
CTDSPL2,48.4,48.7,0.46,-0.599,2.66,4.58
CTSD,56.2,57,-0.113,0.272,1.02,-1.76
CUL7,–,49.1,-0.279,0.0417,0.604,0.125
CXORF56,50.6,51.3,0.1,-0.0564,-1.87,-1.28
DNAJA1,51.8,52.1,0.000386,-0.016,-1.37,-1.92
DNAJB4,49.3,49.5,0.0771,0.0979,1.4,0.454
DNAJC21,50.7,49.9,0.168,-0.451,2.06,1.36
DNMBP,48.8,49,-0.133,0.00933,-0.0907,0.88
DOCK1,50.7,50,-0.0711,-0.195,0.388,0.518
DST,49.1,49.2,0.045,-0.363,0.147,1.16
EIF2AK4,50.8,50.3,-0.0694,-0.218,0.686,0.568
EP300,50.8,51.6,-0.0909,-0.0947,-0.227,1.93
EZH2,49,49.9,0.156,-0.621,2.26,4
FAM91A1,51.9,51.3,-0.101,-0.0537,-0.197,-1.55
FLAD1,51.8,51.6,-0.111,0.272,-0.00796,-0.288
FLNB,51.8,51.3,-0.0508,-0.0724,-0.118,0.998
FXR2,52.6,51.7,0.38,-1.13,-1.1,-0.108
GALK1,52.6,52.7,-0.117,0.313,3.18,1.65
GALNT2,51.6,52,-0.0991,-0.0412,9.37,17.4
GEMIN5,49.4,49.7,-0.155,-0.199,-0.261,1.19
GFM1,50.3,50.5,-0.108,0.0415,-0.899,0.337
HACL1,56.6,56.1,-0.168,-0.0836,-1.09,-0.922
HEATR1,48.4,49.2,0.265,-1.01,1.16,2.97

Substance,melting temperature (HeLa Kyoto [1]; cell cycle stage: G1/S) [°C],melting temperature (HeLa Kyoto [1]; cell cycle stage: mitosis) [°C],solubility change mitosis (log2) (HeLa Kyoto [2]),solubility in G1/S (log2) (HeLa Kyoto [3]),thermal stability score (HeLa Kyoto [4]; [5]),thermal stability score (HeLa Kyoto [4]; cell cycle stage: mitosis)
HELZ,52.3,52.3,-0.131,0.00285,-0.338,-0.16
HERC1,51.7,51.3,-0.126,-0.169,-0.377,-0.404
HNRNPK,49.7,49.9,0.0123,0.317,-0.521,2.21
HSPA2,53.2,52.4,-0.0491,0.111,0.118,1.01
HSPA9,53.1,52.8,-0.0046,0.447,2.31,-0.387
HTT,50.6,50.7,-0.0881,-0.145,-0.714,-1.14
IDH3B,54.2,53.5,-0.00994,0.298,-1.39,-2
IMPDH1,51.1,51.6,-0.176,0.0289,5.12,3.19
ITCH,49.8,51.6,0.0566,-0.468,0.594,0.999
ITPR1,49.8,50.2,-0.0166,-0.349,0.726,1.96
ITPR2,49.6,50.4,0.131,-0.52,-0.335,0.355
ITSN2,51.9,49.1,-0.0144,-0.159,0.178,0.129
KIAA0930,52.6,52.3,-0.03,-0.0317,0.34,0.505
KIDINS220,52.9,52,0.00102,-0.21,-0.795,-1.61
LAMB1,53.6,54.2,-0.0866,0.0818,3.04,4.45
LDLR,56.6,56.6,-0.00467,-0.34,-1.81,-1.47
LMO7,51,51.1,0.694,-1.14,3.45,3.47
MAAAAAAAAAAGAAGGRGSGPGRRRHLVPGAGGEAGEGAPGGAGDYGNGLESEELEPEELLLEPEPEPEPEEEPPRPRAPPGAPGPGPGSGAPGSQEEEEEPGLVEGDPGDGAIEDPELEAIKARVREMEEEAEKLKELQNEVEKQMNMSPPPGNAGPVIMSIEEKMEADARSIYVGNVDYGATAEELEAHFHGCGSVNRVTILCDKFSGHPKGFAYIEFSDKESVRTSLALDESLFRGRQIKVIPKRTNRPGISTTDRGFPRARYRARTTNYNSSRSRFYSGFNSRPRGRVYRGRARATSWYSPY [PABPN1],48.9,50.5,0.441,0.016,1.6,2.2
MAAAAAAGPSPGSGPGDSPEGPEGEAPERRRKAHGMLKLYYGLSEGEAAGRPAGPDPLDPTDLNGAHFDPEVYLDKLRRECPLAQLMDSETDMVRQIRALDSDMQTLVYENYNKFISATDTIRKMKNDFRKMEDEMDRLATNMAVITDFSARISATLQDRHERITKLAGVHALLRKLQFLFELPSRLTKCVELGAYGQAVRYQGRAQAVLQQYQHLPSFRAIQDDCQVITARLAQQLRQRFREGGSGAPEQAECVELLLALGEPAEELCEEFLAHARGRLEKELRNLEAELGPSPPAPDVLEFTDHGGSGFVGGLCQVAAAYQELFAAQGPAGAEKLAAFARQLGSRYFALVERRLAQEQGGGDNSLLVRALDRFHRRLRAPGALLAAAGLADAATEIVERVARERLGHHLQGLRAAFLGCLTDVRQALAAPRVAGKEGPGLAELLANVASSILSHIKASLAAVHLFTAKEVSFSNKPYFRGEFCSQGVREGLIVGFVHSMCQTAQSFCDSPGEKGGATPPALLLLLSRLCLDYETATISYILTLTDEQFLVQDQFPVTPVSTLCAEARETARRLLTHYVKVQGLVISQMLRKSVETRDWLSTLEPRNVRAVMKRVVEDTTAIDVQVGLLYEEGVRKAQSSDSSKRTFSVYSSSRQQGRYAPSYTPSAPMDTNLLSNIQKLFSERIDVFSPVEFNKVSVLTGIIKISLKTLLECVRLRTFGRFGLQQVQVDCHFLQLYLWRFVADEELVHLLLDEVVASAALRCPDPVPMEPSVVEVICERG [VPS51],49.3,49.3,-0.137,0.0503,0.245,0.774
MAAAAAAVGPGAGGAGSAVPGGAGPCATVSVFPGARLLTIGDANGEIQRHAEQQALRLEVRAGPDSAGIALYSHEDVCVFKCSVSRETECSRVGKQSFIITLGCNSVLIQFATPNDFCSFYNILKTCRGHTLERSVFSERTEESSAVQYFQFYGYLSQQQNMMQDYVRTGTYQRAILQNHTDFKDKIVLDVGCGSGILSFFAAQAGARKIYAVEASTMAQHAEVLVKSNNLTDRIVVIPGKVEEVSLPEQVDIIISEPMGYMLFNERMLESYLHAKKYLKPSGNMFPTIGDVHLAPFTDEQLYMEQFTKANFWYQPSFHGVDLSALRGAAVDEYFRQPVVDTFDIRILMAKSVKYTVNFLEAKEGDLHRIEIPFKFHMLHSGLVHGLAFWFDVAFIGSIMTVWLSTAPTEPLTHWYQVRCLFQSPLFAKAGDTLSGTCLLIANKRQSYDISIVAQVDQTGSKSSNLLDLKNPFFRYTGTTPSPPPGSHYTSPSENMWNTGSTYNLSSGMAVAGMPTAYDLSSVIASGSSVGHNNLIPLANTGIVNHTHSRMGSIMSTGIVQGSSGAQGSGGGSTSAHYAVNSQFTMGGPAISMASPMSIPTNTMHYGS [CARM1],56,56.3,-0.216,-0.0215,-1.1,-1.42
MAAAAARVVLSSAARRRLWGFSESLLIRGAAGRSLYFGENRLRSTQAATQVVLNVPETRVTCLESGLRVASEDSGLSTCTVGLWIDAGSRYENEKNNGTAHFLEHMAFKGTKKRSQLDLELEIENMGAHLNAYTSREQTVYYAKAFSKDLPRAVEILADIIQNSTLGEAEIERERGVILREMQEVETNLQEVVFDYLHATAYQNTALGRTILGPTENIKSISRKDLVDYITTHYKGPRIVLAAAGGVSHDELLDLAKFHFGDSLCTHKGEIPALPPCKFTGSEIRVRDDKMPLAHLAIAVEAVGWAHPDTICLMVANTLIGNWDRSFGGGMNLSSKLAQLTCHGNLCHSFQSFNTSYTDTGLWGLYMVCESSTVADMLHVVQKEWMRLCTSVTESEVARARNLLKTNMLLQLDGSTPICEDIGRQMLCYNRRIPIPELEARIDAVNAETIREVCTKYIYNRSPAIAAVGPIKQLPDFKQIRSNMCWLRD [PMPCB],51.7,52.1,-0.0473,0.179,-0.694,-1.33
MAAAAARWNHVWVGTETGILKGVNLQRKQAANFTAGGQPRREEAVSALCWGTGGETQMLVGCADRTVKHFSTEDGIFQGQRHCPGGEGMFRGLAQADGTLITCVDSGILRVWHDKDKDTSSDPLLELRVGPGVCRMRQDPAHPHVVATGGKENALKIWDLQGSEEPVFRAKNVRNDWLDLRVPIWDQDIQFLPGSQKLVTCTGYHQVRVYDPASPQRRPVLETTYGEYPLTAMTLTPGGNSVIVGNTHGQLAEIDLRQGRLLGCLKGLAGSVRGLQCHPSKPLLASCGLDRVLRIHRIQNPRGLEHKVYLKSQLNCLLLSGRDNWEDEPQEPQEPNKVPLEDTETDELWASLEAAAKRKLSGLEQPQGALQTRRRKKKRPGSTSP [WDR74],–,52,0.631,-0.848,-0.813,-1.48
MAAAAASAPQQLSDEELFSQLRRYGLSPGPVTESTRPVYLKKLKKLREEEQQQHRSGGRGNKTRNSNNNNTAAATVAAAGPAAAAAAGMGVRPVSGDLSYLRTPGGLCRISASGPESLLGGPGGASAAPAAGSKVLLGFSSDESDVEASPRDQAGGGGRKDRASLQYRGLKAPPAPLAASEVTNSNSAERRKPHSWWGARRPAGPELQTPPGKDGAVEDEEGEGEDGEERDPETEEPLWASRTVNGSRLVPYSCRENYSDSEEEDDDDVASSRQVLKDDSLSRHRPRRTHSKPLPPLTAKSAGGRLETSVQGGGGLAMNDRAAAAGSLDRSRNLEEAAAAEQGGGCDQVDSSPVPRYRVNAKKLTPLLPPPLTDMDSTLDSSTGSLLKTNNHIGGGAFSVDSPRIYSNSLPPSAAVAASSSLRINHANHTGSNHTYLKNTYNKPKLSEPEEELLQQFKREEVSPTGSFSAHYLSMFLLTAACLFFLILGLTYLGMRGTGVSEDGELSIENPFGETFGKIQESEKTLMMNTLYKLHDRLAQLAGDHECGSSSQRTLSVQEAAAYLKDLGPEYEGIFNTSLQWILENGKDVGIRCVGFGPEEELTNITDVQFLQSTRPLMSFWCRFRRAFVTVTHRLLLLCLGVVMVCVVLRYMKYRWTKEEEETRQMYDMVVKIIDVLRSHNEACQENKDLQPYMPIPHVRDSLIQPHDRKKMKKVWDRAVDFLAANESRVRTETRRIGGADFLVWRWIQPSASCDKILVIPSKVWQGQAFHLDRRNSPPNSLTPCLKIRNMFDPVMEIGDQWHLAIQEAILEKCSDNDGIVHIAVDKNSREGCVYVKCLSPEYAGKAFKALHGSWFDGKLVTVKYLRLDRYHHRFPQALTSNTPLKPSNKHMNSMSHLRLRTGLTNSQGSS [LEMD3],49.1,50.5,-0.0382,0.0762,2.33,3.33
